Experimental data taken from article PMC5430537, “The tarantula toxin β/δ-TRTX-Pre1a highlights the importance of the S1-S2 voltage-sensor region for sodium channel subtype selectivity” (Scientific Reports, 2017).
Bridge positions count the residues as written; N and C are the ends. Peptide text beside a SMILES is read from it.

What was measured:
hNaV1.1 [1] = molecular target: T1, hNaV1.1 (Homo sapiens, UniProt P35498); details: hNaV1.3 and hNaV1.1 peak current; cited from earlier work
Source text: (§1) NaV channel fast inactivation is controlled by the movement of the DIV voltage-sensing domain[17]. […] However, all these peptides share less than 50% similarity with Pre1a (See Fig. 1d) and have very differ ...

hNaV1.3 = hNaV1.3 and hNaV1.1 peak current; cited from earlier work
Source text: as §1

[2] = molecular target: human NaV1.5 α-subunit (human) (UniProt Q14524)
[3] = molecular target: human NaV1.7 α-subunit (in oocytes) (human) (UniProt Q15858)
[4] = molecular target: rat NaV1.2 α-subunit (rat) (UniProt P04775)
Chain of rat NaV1.2 α-subunit (rat) (P04775 whole entry): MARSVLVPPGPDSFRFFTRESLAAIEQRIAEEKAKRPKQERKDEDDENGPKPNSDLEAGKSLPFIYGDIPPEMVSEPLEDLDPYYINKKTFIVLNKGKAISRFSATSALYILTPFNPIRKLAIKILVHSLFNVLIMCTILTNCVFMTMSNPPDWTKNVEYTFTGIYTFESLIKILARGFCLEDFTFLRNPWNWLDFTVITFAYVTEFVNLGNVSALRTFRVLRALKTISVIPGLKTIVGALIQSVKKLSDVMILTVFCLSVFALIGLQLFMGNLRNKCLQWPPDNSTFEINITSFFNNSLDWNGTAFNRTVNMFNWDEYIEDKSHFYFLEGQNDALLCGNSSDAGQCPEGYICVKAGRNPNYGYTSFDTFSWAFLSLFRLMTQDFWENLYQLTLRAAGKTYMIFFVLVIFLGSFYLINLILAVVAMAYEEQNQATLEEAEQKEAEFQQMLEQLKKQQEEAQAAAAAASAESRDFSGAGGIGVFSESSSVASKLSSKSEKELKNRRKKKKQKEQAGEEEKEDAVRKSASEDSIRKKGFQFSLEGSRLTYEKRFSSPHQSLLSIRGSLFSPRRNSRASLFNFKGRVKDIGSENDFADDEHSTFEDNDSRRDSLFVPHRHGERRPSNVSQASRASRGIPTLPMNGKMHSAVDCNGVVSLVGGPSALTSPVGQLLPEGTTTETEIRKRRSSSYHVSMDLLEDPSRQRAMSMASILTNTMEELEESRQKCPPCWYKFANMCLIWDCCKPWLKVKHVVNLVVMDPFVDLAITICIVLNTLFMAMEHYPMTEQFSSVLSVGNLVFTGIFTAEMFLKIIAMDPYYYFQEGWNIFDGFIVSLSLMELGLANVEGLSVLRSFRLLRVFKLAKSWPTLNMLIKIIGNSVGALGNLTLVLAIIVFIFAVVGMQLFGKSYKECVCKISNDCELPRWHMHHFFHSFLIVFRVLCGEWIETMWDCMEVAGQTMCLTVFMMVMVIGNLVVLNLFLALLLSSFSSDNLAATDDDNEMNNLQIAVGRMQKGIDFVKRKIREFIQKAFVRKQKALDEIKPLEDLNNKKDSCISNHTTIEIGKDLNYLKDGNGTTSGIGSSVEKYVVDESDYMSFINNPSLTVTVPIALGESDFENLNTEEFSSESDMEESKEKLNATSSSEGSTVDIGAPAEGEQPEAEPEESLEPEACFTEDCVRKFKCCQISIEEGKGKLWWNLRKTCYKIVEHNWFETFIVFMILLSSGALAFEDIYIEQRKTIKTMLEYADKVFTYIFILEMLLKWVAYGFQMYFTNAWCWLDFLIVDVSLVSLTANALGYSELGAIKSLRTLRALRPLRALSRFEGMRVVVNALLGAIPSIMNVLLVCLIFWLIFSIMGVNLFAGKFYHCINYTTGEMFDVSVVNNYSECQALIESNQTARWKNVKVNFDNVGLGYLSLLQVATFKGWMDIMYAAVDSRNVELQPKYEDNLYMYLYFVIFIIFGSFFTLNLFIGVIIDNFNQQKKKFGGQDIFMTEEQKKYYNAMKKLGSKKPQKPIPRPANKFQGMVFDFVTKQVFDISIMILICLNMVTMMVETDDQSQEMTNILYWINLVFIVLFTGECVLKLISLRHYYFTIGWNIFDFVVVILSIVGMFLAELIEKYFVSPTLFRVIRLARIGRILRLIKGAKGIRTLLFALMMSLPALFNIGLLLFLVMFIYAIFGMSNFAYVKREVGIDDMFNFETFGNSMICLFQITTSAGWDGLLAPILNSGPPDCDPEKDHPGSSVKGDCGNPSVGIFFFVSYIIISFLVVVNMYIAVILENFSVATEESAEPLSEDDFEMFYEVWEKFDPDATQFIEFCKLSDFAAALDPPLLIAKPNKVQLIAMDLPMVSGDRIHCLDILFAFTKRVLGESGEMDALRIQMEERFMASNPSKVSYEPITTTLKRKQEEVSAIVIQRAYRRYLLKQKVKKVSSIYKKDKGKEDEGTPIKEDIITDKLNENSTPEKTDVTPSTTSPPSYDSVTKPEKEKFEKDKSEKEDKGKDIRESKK

[5] = molecular target: rat NaV1.3 α-subunit (rat) (UniProt P08104)
Chain of rat NaV1.3 α-subunit (rat) (P08104 whole entry): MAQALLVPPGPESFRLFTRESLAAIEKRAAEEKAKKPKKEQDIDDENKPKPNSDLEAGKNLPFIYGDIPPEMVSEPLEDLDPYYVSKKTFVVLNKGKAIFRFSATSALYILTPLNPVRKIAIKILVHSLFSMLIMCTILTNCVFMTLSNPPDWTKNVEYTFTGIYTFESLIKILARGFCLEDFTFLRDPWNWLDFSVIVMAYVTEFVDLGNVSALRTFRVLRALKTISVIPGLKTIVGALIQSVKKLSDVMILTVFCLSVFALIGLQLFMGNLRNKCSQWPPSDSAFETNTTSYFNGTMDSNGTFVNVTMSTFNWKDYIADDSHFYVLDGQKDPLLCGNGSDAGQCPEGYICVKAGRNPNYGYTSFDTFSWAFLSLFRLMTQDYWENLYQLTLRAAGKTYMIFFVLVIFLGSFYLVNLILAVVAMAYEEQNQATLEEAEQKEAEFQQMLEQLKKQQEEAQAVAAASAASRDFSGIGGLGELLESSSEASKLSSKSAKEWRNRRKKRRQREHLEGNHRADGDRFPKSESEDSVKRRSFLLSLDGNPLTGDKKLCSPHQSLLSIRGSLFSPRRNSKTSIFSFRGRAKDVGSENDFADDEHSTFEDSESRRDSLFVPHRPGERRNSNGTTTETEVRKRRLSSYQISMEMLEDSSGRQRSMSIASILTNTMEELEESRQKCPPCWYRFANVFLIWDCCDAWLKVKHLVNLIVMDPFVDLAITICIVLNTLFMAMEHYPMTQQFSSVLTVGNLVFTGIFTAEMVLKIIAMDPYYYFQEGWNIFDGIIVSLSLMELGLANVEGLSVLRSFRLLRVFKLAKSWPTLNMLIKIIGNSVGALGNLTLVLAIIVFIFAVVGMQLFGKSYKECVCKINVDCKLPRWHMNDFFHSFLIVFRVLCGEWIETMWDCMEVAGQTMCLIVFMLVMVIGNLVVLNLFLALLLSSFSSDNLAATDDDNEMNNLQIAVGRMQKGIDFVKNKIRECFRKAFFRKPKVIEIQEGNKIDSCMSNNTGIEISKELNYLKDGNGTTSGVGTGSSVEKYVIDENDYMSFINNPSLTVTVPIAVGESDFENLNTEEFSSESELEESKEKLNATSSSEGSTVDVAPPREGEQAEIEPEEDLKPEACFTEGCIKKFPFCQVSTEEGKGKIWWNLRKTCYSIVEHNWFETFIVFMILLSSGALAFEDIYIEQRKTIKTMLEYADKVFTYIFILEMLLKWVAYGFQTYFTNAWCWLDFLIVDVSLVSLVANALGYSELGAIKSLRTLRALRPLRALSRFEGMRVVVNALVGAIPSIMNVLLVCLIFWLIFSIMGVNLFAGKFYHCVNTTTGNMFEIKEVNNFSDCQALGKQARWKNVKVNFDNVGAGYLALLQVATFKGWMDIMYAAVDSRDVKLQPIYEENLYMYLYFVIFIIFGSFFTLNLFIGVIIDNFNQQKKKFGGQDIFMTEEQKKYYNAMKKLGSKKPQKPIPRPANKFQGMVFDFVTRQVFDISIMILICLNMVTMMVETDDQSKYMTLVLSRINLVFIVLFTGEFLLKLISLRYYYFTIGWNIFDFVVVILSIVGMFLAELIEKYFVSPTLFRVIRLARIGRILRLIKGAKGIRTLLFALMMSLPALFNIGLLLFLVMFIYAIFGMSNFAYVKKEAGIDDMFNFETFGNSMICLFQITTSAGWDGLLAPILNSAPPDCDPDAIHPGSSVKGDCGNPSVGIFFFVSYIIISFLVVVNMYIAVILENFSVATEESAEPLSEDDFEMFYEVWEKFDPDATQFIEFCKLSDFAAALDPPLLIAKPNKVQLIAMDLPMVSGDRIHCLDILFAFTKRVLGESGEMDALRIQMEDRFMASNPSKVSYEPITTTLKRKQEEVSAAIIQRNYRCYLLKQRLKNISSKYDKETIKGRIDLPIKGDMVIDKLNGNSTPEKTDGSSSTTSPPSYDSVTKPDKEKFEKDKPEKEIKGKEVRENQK

[6] = molecular target: rat NaV1.4 α-subunit (rat) (UniProt P15390)
[7] = molecular target: rat NaV1.3 α-subunit (rat) (UniProt P08104); remark: listed apart in the source
[8] = molecular target: rat NaV1.3 α-subunit (rat) (UniProt P08104); remark: listed apart in the source
rNaV1.2 = molecular target: T2, rNaV1.2 (Rattus norvegicus, UniProt P04775); experiment: Two-electrode voltage clamp, rNaV1.2 expressed in Xenopus oocytes; assay type: cell-based; details: α-subunit alone, clamped at −90 mV, 50 ms step to −10 or 0 mV, recombinant Pre1a, n ≥ 5, read-out: peak current inhibition IC50
T2 construct: expressed in transfected cells; host or cells: Xenopus laevis oocytes (cRNA injection, alpha subunit alone)
T2 sequence (P04775 whole entry): as the sequence (P04775 whole entry) above
Protocol: (§2) The preparation and injection of Xenopus laevis oocytes and NaV channel recordings using two-electrode voltage-clamp (TEVC) were carried out as described previously. Capped cRNA encoding rat NaV1.2, NaV1.3 and NaV1.4, and human NaV1.5 and NaV1.7 were injected at 20–40 ng of cRNA/oocyte and kept at 17–18 °C in ND96 solution containing (in mM) 96 NaCl, 2 KCl, 1 CaCl2, 2 MgCl2, 5 HEPES, 5 pyruvic acid, 50 µg/ml gentamicin (pH 7.4), and horse serum (2.5%). Membrane currents were recorded 2–5 days after injection. Oocytes were clamped at −90 mV and currents were elicited by a 50 ms depolarising step to −10 or 0 mV every 10 s for concentration response curves. Both peak and late current (50 ms post peak) were analysed. The concentration response curves were fitted to the Hill equation (GraphPad Prism 6). Current-voltage (I-V) relationships and voltage-dependence of fast inactivation were determined using a family of 100 ms conditioning pulses from −100 mV to +50 mV (+60 mV for rNaV1.3) in 5 mV steps, followed by a test depolarisation step to 0 mV with a 20 s sweep interval from a holding potential of −90 mV. […] The half-activation potential (V 1/2) was determined using a Boltzmann fit (GraphPad Prism 6). […]

rNaV1.3 = molecular target: T3, rNaV1.3 (Rattus norvegicus, UniProt P08104); experiment: Two-electrode voltage clamp, rNaV1.3 expressed in Xenopus oocytes; assay type: cell-based
T3 construct: expressed in transfected cells; host or cells: Xenopus laevis oocytes (cRNA injection, alpha subunit alone)
T3 sequence (P08104 whole entry): as the sequence (P08104 whole entry) above
Source text: We analysed the rate of fast inactivation (defined as tau, τinact, or the time to reach 36.8% of a single exponential fit of the current decay) and the degree of persistent sodium current measured at 50 ms of depolarisation (NaV1.2 and 1.7) and 100 ms for rNaV1.3 due to the longer time required to reach complete inactivation in the oocyte expression system without β1.
The preparation and injection of Xenopus laevis oocytes and NaV channel recordings using two-electrode voltage-clamp (TEVC) were carried out as described previously. Capped cRNA encoding rat NaV1.2, NaV1.3 and NaV1.4, and human NaV1.5 and NaV1.7 were injected at 20–40 ng of cRNA/oocyte and kept at 17–18 °C in ND96 solution containing (in mM) 96 NaCl, 2 KCl, 1 CaCl2, 2 MgCl2, 5 HEPES, 5 pyruvic acid, 50 µg/ml gentamicin (pH 7.4), and horse serum (2.5%). Membrane currents were recorded 2–5 days after injection. Oocytes were clamped at −90 mV and currents were elicited by a 50 ms depolarising step to −10 or 0 mV every 10 s for concentration response curves. Both peak and late current (50 ms post peak) were analysed. The concentration response curves were fitted to the Hill equation (GraphPad Prism 6). Current-voltage (I-V) relationships and voltage-dependence of fast inactivation were determined using a family of 100 ms conditioning pulses from −100 mV to +50 mV (+60 mV for rNaV1.3) in 5 mV steps, followed by a test depolarisation step to 0 mV with a 20 s sweep interval from a holding potential of −90 mV. To determine the voltage-dependence of activation non-normalised peak current was used from the I-V family to calculate channel conductance using the equation: G(V) = I/(V − V rev), in which I, V, and V rev represent inward NaV current, test potential, and reversal potential, respectively. The half-activation potential (V 1/2) was determined using a Boltzmann fit (GraphPad Prism 6). All data points are shown as the pIC50 ± S.E.M., as well as the IC50. Replicates (n) represent separate experimental oocytes. Pre1a was resuspended in ND96 solution containing 0.1% bovine serum albumin for all activity analysis. […]

hNaV1.1 [9] = molecular target: T1, hNaV1.1; experiment: QPatch automated patch clamp, HEK293 cells stably co-expressing hNaV1.1 and NaVβ1; assay type: cell-based; details: HEK
Protocol: (§3) For patch clamp analysis, HEK293 cells stably co-expressing the hNaV1.1, hNaV1.6, or hNaV1.7 α-subunit with the NaVβ1-subunit (SB Drug Discovery) were cultured following manufacturer guidelines. Cells were removed from culture at 70% confluency using Detachin (Genlantis) and resuspended to 5 × 10^6 cells/mL in Ex-Cell ACF CHO Medium (Life Technologies) supplemented with 25 mM HEPES (Sigma-Aldrich) and 1 × Glutamax (Life Technologies) before being transferred to the Q-Patch Q-Stirrer and allowed to recover for 30 min before assay.
(§4) The external solution contained (in mM): 140 NaCl, 4 KCl, 2 CaCl2, 1 MgCl2, 10 HEPES, 20 TEA-Cl, 10 glucose, pH 7.4 (with NaOH) and adjusted to 315 mOsm 0.05% BSA was added to prevent adsorptive loss of peptide. The intracellular solution contained (in mM): 140 CsF, 1/5 EGTA/CsOH, 10 HEPES and 10 NaCl, pH 7.4 (with CsOH) and adjusted to 320 mOsm. Whole-cell patch-clamp experiments were performed at room temperature on a QPatch-16 automated electrophysiology platform (Biolin Scientific) using 16-channel planar patch chip plates (Q-Plates) with a patch hole diameter of 1 µm and resistance of 2 ± 0.1 MΩ. […] Pre1a concentrations were incubated for a fixed time of 5–10 min to allow steady-state activity, monitored by the I-T plot.

hNaV1.6 = hNaV1.6 (Homo sapiens, UniProt Q9UQD0); experiment: QPatch automated patch clamp, HEK293 cells stably co-expressing hNaV1.6 and NaVβ1; assay type: cell-based; details: HEK, with NaVβ1, QPatch16, 5–10 min incubation, holding −100 mV; n ≥ 6; read-out: peak current inhibition IC50
Protocol: as §3, §4

hNaV1.7 [10] = molecular target: T4, hNaV1.7 (Homo sapiens, UniProt Q15858); experiment: QPatch automated patch clamp, HEK293 cells stably co-expressing hNaV1.7 and NaVβ1; assay type: cell-based
Protocol: as §3, §4

hNaV1.7 [11] = molecular target: T4, hNaV1.7; experiment: Two-electrode voltage clamp, hNaV1.7 expressed in Xenopus oocytes; assay type: cell-based; parameters: expressed in transfected cells; host or cells: Xenopus laevis oocytes (cRNA injection, alpha subunit alone)
Protocol: as §2

NaV1.7 VSD IV = details: cited from earlier work
Source text: as §1

NaV channels = details: cited from earlier work
Source text: These VSD modulating peptides have been described to modify channel gating in three distinct ways depending on the domain they target and the effect on that domain[17]. Domain IV of the NaV channel α-subunit uniquely controls inactivation of the channel, thus spider peptides that interact with and hinder the normal function of VSDIV slow or inhibit fast inactivation of the channel and may result in persistent current. Conversely, spider venom peptides that interact with DI, DII, and DIII VSD modulate channel activation. Most of those discovered to date cause a shift in the voltage- ... || NaV channel fast inactivation is controlled by the movement of the DIV voltage-sensing domain[17]. […] However, all these peptides share less than 50% similarity with Pre1a (See Fig. 1d) and have very differ ...

[12] = molecular target: human NaV1.1 α-subunit (in HEK293 cells) (human) (UniProt P35498)
[13] = molecular target: human NaV1.6 α-subunit (in HEK293 cells) (human) (UniProt Q9UQD0)
[14] = molecular target: human NaV1.7 α-subunit (in HEK293 cells) (human) (UniProt Q15858)
[15] = molecular target: human NaV1.1 α-subunit (in HEK293 cells) (human) (UniProt P35498); remark: listed apart in the source
[16] = molecular target: human NaV1.7 α-subunit (in oocytes) (human) (UniProt Q15858); remark: listed apart in the source
[17] = molecular target: rat NaV1.2 α-subunit (rat) (UniProt P04775); remark: listed apart in the source
[18] = molecular target: rat NaV1.3 α-subunit (rat) (UniProt P08104); remark: listed apart in the source
[19] = molecular target: KV2.1 chimaera with the S3-S4 linker region of hNaV1.7 DII
[20] = molecular target: KV2.1 chimaera with the S3-S4 linker region of hNaV1.7 DIV
NaV channel DII = details: mutagenesis; cited from earlier work
Source text: The striking differences in effects on NaV1.1, 1.2 and 1.3 are of particular significance for understanding the molecular basis of Pre1a’s subtype selectivity as these three channels have essentially identical S3-S4 linker regions in both DII and DIV (Fig. 7a) (note that NaV1.1 DII S3-S4 has an M to V ...

## O=C(Nc1ccc(S(=O)(=O)Nc2nccs2)cc1)C(c1ccccc1)c1ccccc1 [ICA-121431]
hNaV1.1 [1]
  selectivity: ~ 1000 fold
hNaV1.3
  selectivity: ~ 1000 fold

## recombinant β/δ-TRTX-Pre1a (peptide)
[2]
  percent inhibition of peak current amplitude by 1 μM Pre1a (weak), two-electrode voltage clamp, Xenopus oocytes: 8.6%
[3]
  IC50 of inhibition of peak inward current, two-electrode voltage clamp, Xenopus oocytes: 114 nM
[4]
  IC50 of inhibition of peak inward current, two-electrode voltage clamp, Xenopus oocytes: 190 nM
[5]
  IC50 of inhibition of peak inward current (weak), two-electrode voltage clamp, Xenopus oocytes: 8000 nM
[6]
  percent inhibition of peak current amplitude by 1 μM Pre1a (weak), two-electrode voltage clamp, Xenopus oocytes: 16.5%
[7]
  EC50 of inhibition of inactivation (late current at 100 ms), two-electrode voltage clamp, Xenopus oocytes: 45.5 nM
[8]
  EC50 of inhibition of inactivation (late current), as printed in the legend, Xenopus oocytes: 45 nM

## CC[C@H](C)[C@H](NC(=O)[C@H](CCCCN)NC(=O)[C@H](Cc1ccc(O)cc1)NC(=O)[C@H](CCCCN)NC(=O)[C@@H]1CSSC[C@@H]2NC(=O)[C@H](CCCCN)NC(=O)[C@H](CC(=O)O)NC(=O)[C@H](CC(N)=O)NC(=O)[C@H](CCCCN)NC(=O)[C@@H]3CCCN3C(=O)[C@H](CO)NC(=O)[C@@H]3CSSC[C@H](NC(=O)[C@H](CCCCN)NC(=O)[C@H](Cc4ccc(O)cc4)NC(=O)[C@H](CC(N)=O)NC(=O)[C@@H]4CCCN4C(=O)[C@H](CSSC[C@H](NC(=O)[C@H](CC(=O)O)NC(=O)[C@@H](N)CCC(=O)O)C(=O)N[C@@H](CC(C)C)C(=O)NCC(=O)N[C@@H](Cc4c[nH]c5ccccc45)C(=O)N[C@@H](Cc4ccccc4)C(=O)N[C@@H](CO)C(=O)N[C@@H](CCCNC(=N)N)C(=O)N3)NC2=O)C(=O)N[C@@H](CO)C(=O)N[C@@H](CO)C(=O)N[C@@H](CCCCN)C(=O)N[C@@H](CC(=O)O)C(=O)N[C@@H](CC(C)C)C(=O)N[C@@H](Cc2c[nH]c3ccccc23)C(=O)N1)C(=O)N[C@@H](Cc1c[nH]c2ccccc12)C(=O)O [Pre1a] (H-EDCLGWFSRCSPKNDKCCPNYKCSSKDLWCKYKIW-OH; disulfide 3-18, 10-23, 17-30)
rNaV1.2
  IC50: 190 nM
rNaV1.3; late current at 100 ms, ± S.E.M.
  EC50: 45.7 nM
rNaV1.3; rNaV1.3 inactivation vs activation
  selectivity for inhibiting inactivation over activation: more than 150 fold
rNaV1.3; recombinant Pre1a, ± S.E.M., read-out: peak current inhibition pIC50 (converted)
  IC50: 7940 nM
hNaV1.1 [9]; QPatch16, read-out: peak current inhibition pIC50 (converted)
  IC50: 57.5 nM
hNaV1.1 [9]; late current at 10 ms from peak, read-out: inhibition of fast inactivation pEC50 (converted)
  EC50: 41.7 nM
hNaV1.6
  IC50: 222 nM
hNaV1.7 [10]
  IC50: 15.1 nM
hNaV1.7 [11]
  IC50: 114 nM
hNaV1.7 [11]; NaV1.7 activation vs NaV1.3
  selectivity for inhibiting activation over NaV1.3: ~ 70 fold

## CCN1CC(n2nccc2-c2cc(C(F)(F)F)ccc2Oc2ccc(S(=O)(=O)Nc3ncns3)cc2C#N)C1 [GX-936]
NaV1.7 VSD IV
  state in which VSD is arrested: arrests the VSD in the inactivated state

## ProTx-II: spider peptide
NaV channels
  effect on peak current and fast inactivation: inhibit both peak current and fast inactivation of NaV channels

## β/δ-TRTX-Pre1a (synthetic or recombinant not stated for the experiment) (peptide)
[12]
  IC50 of inhibition of peak current, QPatch16 automated patch clamp, HEK cells: 57.1 nM
[13]
  IC50 of inhibition of peak current, QPatch16 automated patch clamp, HEK cells: 222 nM
[14]
  IC50 of inhibition of peak current, QPatch16 automated patch clamp, HEK cells: 15 nM
[15]
  EC50 of inhibition of fast inactivation (late current at 10 ms from peak), QPatch, HEK cells: 41.4 nM
[16]
  shift of the V1/2 of activation by 1 µM Pre1a, Xenopus oocytes: 13.8 mV
[17]
  shift of the V1/2 of activation by 1 µM Pre1a, Xenopus oocytes: 14.9 mV
[18]
  shift of the V1/2 of activation of the late current by 1 μM Pre1a, Xenopus oocytes: 9.6 mV
[19]
  percent inhibition of outward (peak) current by 1 μM Pre1a: 44%
[20]
  percent inhibition of outward (peak) current by 1 μM Pre1a: 27.1%

## HwTxIV
NaV channel DII
  effect of divergent residues in S2 region 1 on activity: little effect on the activity
